Assay results reported in US20240218079A1, “PLASMA KALLIKREIN ANTIBODIES AND USES THEREOF” (Astria Therapeutics, Inc., priority 2021, published 2024).

How the values were obtained:
Hepsin = assay: cell-based or functional assay
Thrombin a = assay: cell-based or functional assay

Chain of DX-2930 (antibody) (VH): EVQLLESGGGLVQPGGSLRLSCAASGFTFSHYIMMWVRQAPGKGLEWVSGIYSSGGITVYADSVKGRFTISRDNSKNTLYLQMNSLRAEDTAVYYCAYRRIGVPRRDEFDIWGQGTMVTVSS
Chain of DX-2930 (antibody) (VL): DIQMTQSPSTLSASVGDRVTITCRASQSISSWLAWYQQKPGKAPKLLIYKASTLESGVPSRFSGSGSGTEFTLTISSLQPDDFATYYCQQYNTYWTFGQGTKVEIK

DX-2930 (antibody)
> 1000 nM: IC50, protease inhibition assay, fluorescent peptide substrate, Duplicate 1 (Hepsin) | IC50, protease inhibition assay, fluorescent peptide substrate, Duplicate 2 (Hepsin) | IC50, protease inhibition assay, fluorescent peptide substrate, Duplicate 1 (Thrombin a) | IC50, protease inhibition assay, fluorescent peptide substrate, Duplicate 2 (Thrombin a)
